Measured values reported in the supplement of paper PMC9170038.

Tested on: MS2 coat protein
Assay: apparent KD of MS2 coat protein; designed switch direction (-1 OFF switch, 1 ON switch): -1; higher = weaker reporter binding
Method in brief: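 RNA switches sharing common flanks were transcribed by stalled E. coli RNA polymerase on Illumina chips. A doubling series of SNAP-549-labelled MS2 coat protein, from 0.7 or 1.5 nM to 3 µM, was applied in Tris-HCl pH 7.5 buffer with KCl, MgCl2, BSA, DTT, tRNA and Tween-20. Each step lasted 0.8–1.5 h at the bottom of the series and 10–20 min at the top. Normalised cluster fluorescence was curve-fitted, giving apparent KD as the per-design median over clusters.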

[1] = Eterna round: R95, input ligand: FMN 200 uM
[2] = Eterna round: R95, input ligand: microRNA oligo, concentration not stated
[3] = Eterna round: R95, input ligand: none
[4] = input ligand: microRNA oligo, concentration not stated

Sequence | apparent KD of MS2 coat protein [1] [nM] | apparent KD of MS2 coat protein [2] [nM] | apparent KD of MS2 coat protein [3] [nM] | apparent KD of MS2 coat protein (input ligand: FMN 200 uM) [nM] | apparent KD of MS2 coat protein (input ligand: none) [nM] | apparent KD of MS2 coat protein [4] [nM]
GAUUAUGCGAGCUUUAGGGACAUGAGGAUCACCCAUGUUCGUCUUAUUAGUCUAGGUACGCUGACAUACCUAAAUCU [JMF 100] (puzzle: Sensor v3, turn-off variant 1) | 21.8 | 32.9 | 21.6 |  |  | 
GAUUAUGCGAGCUUUAGGGACAUGAGGAUCACCCAUGUUCGUCUUAUUAGUCUGGAUACACUGACAUACCUAAAUCU [JMF 59] (puzzle: Sensor v3, turn-off variant 1) | 14.8 | 20.9 | 16.4 |  |  | 
GAUUAUGCGAGCUUUAGGGACAUGAGGAUCACCCAUGUUCGUCUUAUUAGUCUGGAUGCACUGACAUACCUAAAUCU [JMF 81] (puzzle: Sensor v3, turn-off variant 1) | 18.4 | 25.2 | 19.1 |  |  | 
GAUUAUGCGAGCUUUAGGGACAUGAGGAUCACCCAUGUUCGUCUUAUUAGUCUGGGUGCACUAACAUACCUAAAUCU [JMF 37] (puzzle: Sensor v3, turn-off variant 1) | 135 | 81.4 | 153 |  |  | 
GAUUAUGCGAGCUUUAGGGACAUGAGGAUCACCCAUGUUCGUCUUAUUGAUCUAGGUGCGCUAACAUACCUAAAUCU [JMF 49] (puzzle: Sensor v3, turn-off variant 1) | 26.2 | 34.7 | 30 |  |  | 
GAUUAUGCGAGCUUUAGGGACAUGAGGAUCACCCAUGUUCGUCUUAUUGGUCUGGAUGCACUGACAUACCUAAAUCU [JMF 82] (puzzle: Sensor v3, turn-off variant 1) | 17.1 | 25.5 | 21.5 |  |  | 
GAUUGAGAGCAGGAUAUAUUCCUGAUGUAUGAAGUAGAAGGGCUCACAUGAGGAUCACCCAUGUGAUCCUGAAA [Mat - Exclusion 6 - Eli Mod - D3] (Eterna round: R97, puzzle: Exclusion 6) |  |  |  | 13.8 | 14 | 
GAUUGAUAAGGAUAUACAUGAGGAUCACCCAUGUGCUUCAGCUAGGAGACUAGCAUUGGUAGAAGGUAUUAAUC [Mod of lroppy 12 - Jieux - Exclusion 3] (Eterna round: R97, puzzle: Exclusion 3) |  |  |  | 51.8 | 21.8 | 
GAUUUAGAGCAGGAUAUCAUAGAAAUGUAUGAAUGAGAAGGGCUCACAUGAGGAUCACCCAUGUGGUCCUAGAU [JL Dibiri mod 20] (Eterna round: R96, puzzle: Exclusion 6) |  |  |  |  |  | 21.6
GAUUUAGAGCAGGAUAUCAUAGAAAUGUAUGAAUGAGAAGGGCUCACAUGAGGAUCACCCAUGUGGUCCUAGAU [JL Dibiri mod 20] (puzzle: Exclusion 6) | 144 | 23.5 | 20.3 |  |  | 
GAUUUAGAGCAGGAUAUCAUAGAAUUAUAUGAAUGAGAAGGGCUCACAUGAGGAUCACCCAUGUGGUCCUAGAU [JL Dibiri mod 22] (Eterna round: R96, puzzle: Exclusion 6) |  |  |  | 235 | 25.4 | 21.7
GAUUUAGAGCAGGAUAUCAUAGAAUUAUAUGAAUGAGAAGGGCUCACAUGAGGAUCACCCAUGUGGUCCUAGAU [JL Dibiri mod 22] (puzzle: Exclusion 6) |  | 22.8 |  |  |  | 
GCAACUACGGAUCUCAUCAACAUGAGGAUCACCCAUGUAGAAUGCGUACAAGCUUUUUGUUCUGGCAUCCCAUAGUC [Eternabot (L2) Solution 35] (Eterna round: R97, puzzle: Sensor, turn-off variant 1) |  |  |  | 63 | 65.3 | 
GCAAGAAUAGGAUAUACACCAUGCCAGCUUCUAUACAACGCACAUGAGGAUCACCCAUGUAGAAGGGUUCUCUG [Exclusion-2-#12] (Eterna round: R97, puzzle: Exclusion 2) |  |  |  | 225 | 262 | 
GCAAGCUUAGGAUAUACAUGAGGAUCACCCAUGUCGUGAAUUUCGAUGCUUAAUGGCGGUAGAAGGAGGCUUGA [Eternabot (L2) Solution 12] (Eterna round: R97, puzzle: Exclusion 3) |  |  |  | 31.2 | 18.8 | 
GCAAGCUUUUAGGUUUUCAACAUGAGGAUCACCCAUGUUCGUCUUGUGCUCGGGCUUGGGCGGUGUCCGGGUUUGGG [JL TOV1 3.75 sellena mod] (Eterna round: R97, puzzle: Sensor, turn-off variant 1) |  |  |  | 40.4 | 43.7 | 

Sequence | apparent KD of MS2 coat protein [1] [nM] | apparent KD of MS2 coat protein [2] [nM] | apparent KD of MS2 coat protein [3] [nM] | apparent KD of MS2 coat protein (input ligand: FMN 200 uM) [nM] | apparent KD of MS2 coat protein (input ligand: none) [nM] | apparent KD of MS2 coat protein [4] [nM]
GCAAGCUUUUCGAUCCUCUACAUGAGGAUCACCCAUGUGCUCGAAUUGUUUGGUACUAUCACGAAAGUGAUAGUACA [Sensor, turn off variant 1 v.4] (Eterna round: R97, puzzle: Sensor, turn-off variant 1) |  |  |  | 936 | 1150 | 
GCAAGCUUUUGCUCGUCUUACAUGAGGAUCACCCAUGUCGGGCCCGGCCGUCGCGGCCGGGCCCGCCGGGCGCCGGG [-41.9, -69.5 kcal, A 10%] (Eterna round: R97, puzzle: Sensor, turn-off variant 1) |  |  |  | 53.5 | 64.1 | 
GCAAGCUUUUGCUCGUCUUACAUGAGGAUCACCCAUGUCGGGUGCUUGCUUCGGGCCCGGGCCUCCCGGGCCCGGGC [-43.3, -67 kcal, A 10%] (Eterna round: R97, puzzle: Sensor, turn-off variant 1) |  |  |  | 61.8 | 66.3 | 
GCAAGUUUUUUGUUUUUUAACAUGAGGAUCACCCAUGUGCGGUUAUAGUGUGUGUGAUUAGGAUCUUGUGGUCUUAG [JR_SV3TOV1_Sub102] (puzzle: Sensor v3, turn-off variant 1) | 67.8 | 123 | 98.9 |  |  | 
GCACAUGCAGGAUAUGUAAAAUUUGACAUGAGGAUCACCCAUGUAGAUCCUGAAUUUCCUGCAGAAGGGCAUGUGC [Mat - Exclusion 5 - Eli Mod - D17] (Eterna round: R97, puzzle: Exclusion 5) |  |  |  | 345 | 98.8 | 
GCACGAAGUGUAGGAUAUCUGUGCGAUUAGCUCAGAGAAGGACACAUGAGGAUCACCCAUGUUUUCCACGGAUAGCAAACGUGC [Eli exng1 - 059] (Eterna round: R96, puzzle: Exclusion NG 1) |  |  |  | 21 | 19.6 | 14.4
GCACGCAGUGUUAGGAUAUUAAUGGCACCGCAACGUAAGAAGGAACAUGAGGAUCACCCAUGUGUGCUAGAGAA [Eternabot (Original) Solution 14] (Eterna round: R97, puzzle: Brourd's mod of Exclusion 4) |  |  |  | 30.1 | 29.5 | 
GCACGGAGUGUAGGAUAUCUGUGCGAUUAGCUCAGAGAAGGACAUGAGGAUCACCCAUGUGUGUUCCAAACACAAAAUCCGUGC [Eli exng1 - 065] (Eterna round: R96, puzzle: Exclusion NG 1) |  |  |  | 47.2 | 18 | 12.8
GCACGGAGUGUAGGAUAUUAGUGCGAUUAGCACUGAGAAGGACAUGAGGAUCACCCAUGUUCCUCAAUAAUUAACCUUCCGUGC [Eli exng1 - 039] (Eterna round: R96, puzzle: Exclusion NG 1) |  |  |  | 16.7 | 12.9 | 8.49
GCACGGUAAUUCCAUAAAACCACAUGAGGAUCACCCAUGUCUCAGGAUAUGGUCUGGAUUACAGGCCAGAAGGGAGAGCCGUGC [Eli exng3 - 060] (Eterna round: R96, puzzle: Exclusion NG 3) |  |  |  | 10.4 | 13.3 | 8.88
GCACGGUUGGUAGGAUAUCAUUGCGAUUAGCUAUGAGAAGGACCACAUGAGGAUCACCCAUGUCCUCUAAUUAGCCUACCGUGC [Eli exng1 - 015] (Eterna round: R96, puzzle: Exclusion NG 1) |  |  |  | 383 | 151 | 109
GCACUCUGCUGGCAGUCGGCUUGUCUUAGAAGGAUAGAUACAUGAGGAUCACCCAUGUUUCGGGUGUCAAUUCUAGC [JR_Sensorv2_tov2_Sub1308] (Eterna round: R96, puzzle: Sensor v2, turn-off variant 2) |  |  |  | 43.9 | 42.6 | 34.5
GCACUGACAGGAUAUACAUGAGGAUCACCCAUGUGACCCUUAUAGUACUCGCGUACAAGUAGAAGGGUCUGUGC [Omei Ex3 Model Bachelor's Dilema v31] (Eterna round: R97, puzzle: Exclusion 3) |  |  |  | 382 | 107 | 
GCACUGCGAGGAUAUACAUGAGGAUCACCCAUGUGUCCGCAGCGAUGCGAGUACAAAUGUAGAAGGCGCGUAAA [EX3 #57] (Eterna round: R97, puzzle: Exclusion 3) |  |  |  | 34.1 | 14.3 | 
GCAGAAAGUGUAGGAUAUAUAAUAAAGCGGAAACGCAAGACAUGAGGAUCACCCAUGUGUCCGGAAUAGAAGGGCAAAAGCUGC [EXNG2 V2 b] (Eterna round: R96, puzzle: Exclusion NG 2) |  |  |  | 29.1 | 29.4 | 19.9
GCAGAUCAAGUGAGGAUAUGCUCUACCUCGGUAGAGCAGAAGGCACAUGAGGAUCACCCAUGUGAUUGAUCUGC [Omei Ex4B B5] (Eterna round: R97, puzzle: Brourd's mod of Exclusion 4) |  |  |  | 26.9 | 19.5 | 
